Several values for one entry are separate records, joined by “and”; a condition that tells them apart may be missing. Equal values may be shown once.
B1: mouse Robo1 ectodomain (domain or fragment, UniProt O89026 20-858, looked up)
chain: SRLRQEDFPPRIVEHPSDLIVSKGEPATLNCKAEGRPTPTIEWYKGGERVETDKDDPRSHRMLLPSGSLFFLRIVHGRKSRPDEGVYICVARNYLGEAVSHNASLEVAILRDDFRQNPSDVMVAVGEPAVMECQPPRGHPEPTISWKKDGSPLDDKDERITIRGGKLMITYTRKSDAGKYVCVGTNMVGERESEVAELTVLERPSFVKRPSNLAVTVDDSAEFKCEARGDPVPTVRWRKDDGELPKSRYEIRDDHTLKIRKVTAGDMGSYTCVAENMVGKAEASATLTVQEPPHFVVKPRDQVVALGRTVTFQCEATGNPQPAIFWRREGSQNLLFSYQPPQSSSRFSVSQTGDLTITNVQRSDVGYYICQTLNVAGSIITKAYLEVTDVIADRPPPVIRQGPVNQTVAVDGTLILSCVATGSPAPTILWRKDGVLVSTQDSRIKQLESGVLQIRYAKLGDTGRYTCTASTPSGEATWSAYIEVQEFGVPVQPPRPTDPNLIPSAPSKPEVTDVSKNTVTLSWQPNLNSGATPTSYIIEAFSHASGSSWQTAAENVKTETFAIKGLKPNAIYLFLVRAANAYGISDPSQISDPVKTQDVPPTSQGVDHKQVQRELGNVVLHLHNPTILSSSSVEVHWTVDQQSQYIQGYKILYRPSGASHGESEWLVFEVRTPTKNSVVIPDLRKGVNYEIKARPFFNEFQGADSEIKFAKTLEEAPSAPPRSVTVSKNDGNGTAILVTWQPPPEDTQNGMVQEYKVWCLGNETKYHINKTVDGSTFSVVIPSLVPGIRYSVEVAASTGAGPGVKSEPQFIQLDSHGNPVSPEDQVSLAQQISDVVRQP
notes: Robo1, mouse, ectodomain; Mostly dimeric, in equilibrium with monomer and higher oligomers; also called mRobo1 ectodomain; mRobo1; source: High Five cells (baculovirus), secreted, purified (Ni-NTA, SEC)
B5: full-length mouse NELL2 (ligand, UniProt Q61220 25-819, looked up)
chain: LGVDPSLQIDVLTELELGESTDGVRQVPGLHNGTKAFLFQESPRSIKASTATAERFFQKLRNKHEFTILVTLKQIHLNSGVILSIHHLDHRYLELESSGHRNEIRLHYRSGTHRPHTEVFPYILADAKWHKLSLAFSASHLILHIDCNKIYERVVEMPSTDLPLGTTFWLGQRNNAHGYFKGIMQDVHVLVMPQGFIAQCPDLNRTCPTCNDFHGLVQKIMELQDILSKTSAKLSRAEQRMNRLDQCYCERTCTVKGTTYRESESWTDGCKNCTCLNGTIQCETLVCPAPDCPPKSAPAYVDGKCCKECKSTCQFQGRSYFEGERNTVYSSSGMCVLYECKDQTMKLVENIGCPPLDCPESHQIALSHSCCKVCKGYDFCSEKHTCMENSVCRNLNDRAVCSCRDGFRALREDNAYCEDIDECAEGRHYCRENTMCVNTPGSFMCICKTGYIRIDDYSCTEHDECLTNQHNCDENALCFNTVGGHNCVCKPGYTGNGTTCKAFCKDGCRNGGACIAANVCACPQGFTGPSCETDIDECSEGFVQCDSRANCINLPGWYHCECRDGYHDNGMFAPGGESCEDIDECGTGRHSCTNDTICFNLDGGYDCRCPHGKNCTGDCVHEGKVKHTGQIWVLENDRCSVCSCQTGFVMCRRMVCDCENPTVDLSCCPECDPRLSSQCLHQNGETVYNSGDTWVQDCRQCRCLQGEVDCWPLACPEVECEFSVLPENECCPRCVTDPCQADTIRNDITKTCLDEMNVVRFTGSSWIKHGTECTLCQCKNGHLCCSVDPQCLQEL
modifications: biotin (NHS-Biotin) where captured on the SA chip for SPR
notes: NELL2, mouse; called full-length; the methods say that mature domains were cloned into pAcGP67A; Trimer by MALS; also called mNELL2; mNELL2 ectodomain; source: High Five cells (baculovirus), secreted, purified (Ni-NTA, SEC); not shown: His6, C-terminal, kept

Experiments:
[1] = molecular target: the molecule itself; test: AUC; sedimentation velocity, 20 °C, c(s) analysis in SEDFIT; single concentration 2.5 µM mRobo1 and 1.8 µM mRobo3 at 200,000 g, and concentration series (mRobo3 up to 20 µM)
[2] = molecular target: T1, biotinylated human Robo3 FN1–3 (Avi-tagged) (human, UniProt Q96MS0 558-869, biotin on the Avi-tag (BirA)); test: SPR; biotinylated hRobo3 FN1–3 captured on an NLC (neutravidin) chip, ProteOn XPR36; NELL EGF constructs as analyte; 25 °C, 10 mM HEPES pH 7.2, 150 mM NaCl, 0.05% Tween-20, 0.1% BSA; equilibrium responses, 1:1 Langmuir model; details: both partners purified
T1 construct: Robo3, human, FN domains 1-3; also called biotinylated hRobo3 FN1–3; hRobo3 FN1–3; source: High Five cells (baculovirus), secreted, purified (Ni-NTA, SEC), biotinylated with BirA
T1 sequence (looked up): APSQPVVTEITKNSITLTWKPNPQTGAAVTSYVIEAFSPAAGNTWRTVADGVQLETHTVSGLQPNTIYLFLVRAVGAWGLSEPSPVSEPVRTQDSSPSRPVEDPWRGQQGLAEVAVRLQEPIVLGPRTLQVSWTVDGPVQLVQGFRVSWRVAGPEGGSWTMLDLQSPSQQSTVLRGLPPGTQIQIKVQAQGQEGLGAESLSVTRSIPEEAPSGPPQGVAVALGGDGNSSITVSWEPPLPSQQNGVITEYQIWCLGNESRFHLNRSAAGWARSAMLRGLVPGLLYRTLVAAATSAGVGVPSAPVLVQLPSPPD

mouse Robo1 FN1–3 = molecular target: T2, mouse Robo1 FN1–3 (mouse, UniProt O89026 524-835, biotin on the N-terminal amine (NHS-Biotin at pH 6.5)); test: SPR; mRobo1 FN1–3 biotinylated at the N-terminal amine (NHS-Biotin, pH 6.5), 315 RU captured on a Biacore SA chip; mNELL2 EGF1–6 as analyte; Langmuir isotherm; details: both partners purified
T2 construct: Robo1, mouse, FN domains 1-3; also called mRobo1 FN1–3; source: High Five cells (baculovirus), secreted, purified (Ni-NTA, SEC)
T2 sequence (looked up): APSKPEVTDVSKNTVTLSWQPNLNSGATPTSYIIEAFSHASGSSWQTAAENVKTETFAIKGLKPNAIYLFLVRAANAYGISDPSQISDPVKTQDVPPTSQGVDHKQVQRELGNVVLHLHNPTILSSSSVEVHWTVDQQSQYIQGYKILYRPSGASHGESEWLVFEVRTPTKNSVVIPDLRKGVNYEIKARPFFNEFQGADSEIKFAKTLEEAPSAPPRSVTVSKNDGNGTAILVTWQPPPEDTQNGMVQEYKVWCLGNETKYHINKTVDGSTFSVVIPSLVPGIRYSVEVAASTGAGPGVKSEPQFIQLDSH

[3] = molecular target: the molecule itself; test: SEC-MALS; Superose 6 Increase 10/300 in HBS (10 mM HEPES pH 7.2, 150 mM NaCl), Wyatt HELEOS II
[4] = molecular target: the molecule itself; test: SEC-MALS; Wyatt HELEOS II coupled to an AKTA FPLC, Superose Increase 6 10/300, HBS; Zimm model
mouse Robo1 ectodomain = molecular target: B1; test: SPR; mRobo1 ectodomain on a CM5 chip by random amine coupling (~1,200 R.U.); mNELL2 as analyte; KD from equilibrium responses assuming 50 to 100% active surface; buffer as for the other SPR experiments, 25 °C; details: both partners purified
full-length mouse NELL2 = molecular target: B5; test: SEC; complex of full-length mNELL2 and mRobo3 FN1 purified by SEC; peak fractions quantified in triplicate by western blot against the His6 tag with 1:1 molar standards; details: both partners purified

Binder: B1
- stoichiometry N [1]: 2

B2: human NELL2 EGF domains 1-6 (domain or fragment)
chain: not shown
notes: NELL2, human, EGF domains 1-6; also called hNELL2 EGF1–6; NELL2 EGF1–6; source: High Five cells (baculovirus), secreted, purified (Ni-NTA, SEC)
- Kd [2]: 600 nM

B3: mouse NELL2 EGF1–6, wild type (domain or fragment)
chain: not shown
notes: NELL2, mouse, EGF domains 1-6; also called mNELL2 EGF1–6 WT; mNELL2 EGF1–6; source: High Five cells (baculovirus), secreted, purified (Ni-NTA, SEC)
- Kd (mouse Robo1 FN1–3): 14 µM

B4: mNELL1 (full length) (ligand, mouse, UniProt Q2VWQ2 25-809, looked up)
chain: DPDLQMDIITELDLVNTTLGVTQVAGLHNASKAFLFQDVQREIHSAPHVSEKLIQLFRNKSEFTFLATVQQKPSTSGVILSIRELEHSYFELESSGPREEIRYHYIHGGKPRTEALPYRMADGQWHKVALSVSASHLLLHVDCNRIYERVIDPPETNLPPGSNLWLGQRNQKHGFFKGIIQDGKIIFMPNGFITQCPNLNRTCPTCSDFLSLVQGIMDLQELLAKMTAKLNYAETRLGQLENCHCEKTCQVSGLLYRDQDSWVDGDNCRNCTCKSGAVECRRMSCPPLNCSPDSLPVHISGQCCKVCRPKCIYGGKVLAEGQRILTKTCRECRGGVLVKITEACPPLNCSEKDHILPENQCCRVCRGHNFCAEAPKCGENSECKNWNTKATCECKNGYISVQGNSAYCEDIDECAAKMHYCHANTVCVNLPGLYRCDCIPGYIRVDDFSCTEHDDCGSGQHNCDKNAICTNTVQGHSCTCQPGYVGNGTVCKAFCEEGCRYGGTCVAPNKCVCPSGFTGSHCEKDIDECAEGFVECHNHSRCVNLPGWYHCECRSGFHDDGTYSLSGESCIDIDECALRTHTCWNDSACINLAGGFDCLCPSGPSCSGDCPHEGGLKHNGQVWILREDRCSVCSCKDGKIFCRRTACDCQNPNVDLFCCPECDTRVTSQCLDQSGQKLYRSGDNWTHSCQQCRCLEGEADCWPLACPSLSCEYTAIFEGECCPRCVSDPCLADNIAYDIRKTCLDSSGISRLSGAVWTMAGSPCTTCQCKNGRVCCSVDLVCLEN
notes: mouse NELL1, D25-N809; trimer by MALS; also called NELL1FL (Polyhedrin, mouse); source: High Five cells (baculovirus), purified (Ni-NTA, SEC)
- stoichiometry N [3]: 3

Binder: B5
- stoichiometry N [4]: 3
- Kd (mouse Robo1 ectodomain): ~350 µM and 190 to 400 µM

B6: mouse Robo3 FN1 domain (domain or fragment, UniProt Q9Z2I4 558-652, looked up)
chain: PPSQPIVTEVTANSITLTWKPNPQSGATATSYVIEAFSQAAGNTWRTVADGVQLETYTISGLQPNTIYLFLVRAVGAWGLSEPSPVSEPVQTQDS
notes: Robo3, mouse, FN1 domain; also called mRobo3 FN1; source: High Five cells (baculovirus), secreted, purified (Ni-NTA, SEC); not shown: His6, C-terminal, kept
- stoichiometry N (full-length mouse NELL2): 3 mRobo3 FN1 per mNELL2 trimer
